Patent publication US20020028487A1 (UNIVERSITY COURT OF THE UNIVERSITY OF GLASGOW, published 2002)

B1: VP16-JMY^469-558 (other)
chain: EKLQYAVSKETLQMMRAKEICLEQKKHALKEEMQSLQGGTEAIARLDQLESDYYDLQLQLYEVQFEILKCEELLLTAQLESIKRLISEKR
notes: Two-hybrid prey used in yeast and in U2OS cells; also called pVP16-JMY^469-558; JMY-VP16
B2: Lex-JMY^469-558 (other)
chain: EKLQYAVSKETLQMMRAKEICLEQKKHALKEEMQSLQGGTEAIARLDQLESDYYDLQLQLYEVQFEILKCEELLLTAQLESIKRLISEKR
notes: Yeast two-hybrid bait; also called pLex-JMY^469-558; not shown: LexA part of bait vector pLex (his)

What was measured:
[1] = target: T1, G4-p300 from residue 1302 to 1572 (yeast, UniProt P04386 1-147; Q09472 1302-1572); assay: mammalian two-hybrid assay, U2OS cells, pG5-luc reporter
T1 construct: Mammalian two-hybrid bait; also called p300^302-1572 (as printed in the methods)

[2] = target: G4-p300^611-1257 (yeast, UniProt P04386 1-147; Q09472 611-1257); assay: cell-based or functional assay
[3] = target: G4-p300^1572-2283 (yeast, UniProt P04386 1-147; Q09472 1572-2283); assay: cell-based or functional assay
[4] = target: B1; assay: yeast two-hybrid, β-galactosidase induction; prey VP16-JMY^469-558

Binder | binding result [1] | relative activity of luciferase to β-galactosidase (pG5-luc reporter, mammalian two-hybrid assay in U2OS cells) [2] [fold increase] | relative activity of luciferase to β-galactosidase (pG5-luc reporter, mammalian two-hybrid assay in U2OS cells) [3] [fold increase] | binding result [4]
B1 | no binding | 4 | 5 | 
B2 |  |  |  | binds
